Experiments:
D10 cell = D10 cell proliferation assay (specific activity of rIL-1 alpha); type: cell-based; settings: for Specific Activity: label = apparent molecular weight (kD)
Protocol: Pegylated rIL-1 alpha was purified from the reaction mixture after 60 minutes using hydrophobic exchange chromatography (Bio-Rad; HRLC. MP7 HlC). A linear gradient with decreasing salt concentration from 0.43 to 0.0M (NH4)2 SO4 in 50 mM sodium phosphate pH 7.0 in 20 minutes was used to separate pegylated rIL-1 alpha and unmodified rIL-1 alpha. Aliquots of fractions were evaluated by SDS-PAGE and pooled fractions were assayed for specific activity in a D10 cell proliferation assays by the method described by Kaye et al. [J. Exp. Med. 158:836, (1983)]. Protein concentrations were determined spectrophotometrically at […] using an extinction coefficient of 1.0 for rIL-1 alpha. The specific activity of the rIL-1 alpha is approximately 1.0×10^8 units/mg. The 26 kD pegylated IL-1 alpha conjugate retains bioactivity within 2-3 fold of relative to IL-1 alpha.

[1] = target: T1, IL-1 receptor on EL-4 membranes (Mus musculus, UniProt P13504); assay: IL-1 radioreceptor competition binding assay
T1 construct: incubated at varying concentrations with EL-4 membranes; endogenous in cells; host or cells: EL-4 cell membranes
T1 sequence (P13504 20-576): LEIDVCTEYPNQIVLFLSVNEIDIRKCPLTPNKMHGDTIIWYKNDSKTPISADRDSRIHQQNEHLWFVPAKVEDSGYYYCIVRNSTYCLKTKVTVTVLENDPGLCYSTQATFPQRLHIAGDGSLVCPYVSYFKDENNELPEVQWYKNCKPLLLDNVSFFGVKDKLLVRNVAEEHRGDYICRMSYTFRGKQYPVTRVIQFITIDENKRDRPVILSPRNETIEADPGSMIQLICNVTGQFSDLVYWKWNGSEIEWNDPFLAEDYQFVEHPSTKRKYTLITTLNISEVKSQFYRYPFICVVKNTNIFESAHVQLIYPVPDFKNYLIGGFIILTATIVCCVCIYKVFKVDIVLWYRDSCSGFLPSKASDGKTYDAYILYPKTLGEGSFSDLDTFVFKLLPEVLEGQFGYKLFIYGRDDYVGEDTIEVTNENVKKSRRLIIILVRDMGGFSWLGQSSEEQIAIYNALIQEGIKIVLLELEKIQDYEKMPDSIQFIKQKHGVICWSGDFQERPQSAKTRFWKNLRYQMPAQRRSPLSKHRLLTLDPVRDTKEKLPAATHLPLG
Protocol: Pegylated IL-1ra was purified from the reaction mixture using hydrophobic exchange chromatography (Bio-Rad; HRLC MP7 HlC). A linear gradient with decreasing salt concentrations from 0.43 to 0.0M (NH4)2 SO4 in 50 mM sodium phosphate pH 7.0 in 20 minutes was used to separate pegylated IL-1ra and unmodified IL-1ra. Aliquots of fractions were evaluated by SDS-PAGE and pooled fractions were assayed in an IL-1 radioreceptor competition binding assay. [Kilian et al. J. Immunol., 136, 4509, (1986)]. Briefly, IL-1ra and PEG-IL-1ra were incubated at varying concentrations with EL-4 membranes for 30 min at 37° C. The [^125 I]IL-1 alpha was then added and the incubation continued for 30 min. The assay was terminated by vacuum filtration and the collection of cell bound [^125 I]IL-1 on filter plates. The concentration of IL-1ra or PEG-IL-1ra that inhibits binding of [^125l]IL- 1 by 50% (IC50) was determined graphically. […] The pegylated IL-1ra mixture retained its ability-to bind to the IL-1 receptor on EL-4 membranes within a factor 2 to 3 fold relative to the unmodified II1-1ra.

MDBK = assay: Anti-viral activity (specific activity) in an MDBK assay; type: cell-based; settings: label = apparent molecular weight (kD)
Protocol: The predominant molecular weight species from the reaction mixture were identified by SDS-PAGE with apparent molecular weights of 15 (unmodified),and 28 kD. The 28 kD pegylated protein accounted for 40% of the, total protein. The pegylated IFN-alpha was purified from the 60 minute reaction mixture and characterized using hydrophobic exchange chromatography (Bio-Rad; Biogel-phenyl-S-PW). A linear gradient with decreasing salt concentrations from 0.42M to 0.0M (NH4)2 SO4 in 50 mM sodium phosphate pH 7.0 in 20 minutes was used to separate pegylated IFN-alpha and unmodified IFN-alpha. Aliquots of the fractions were evaluated by SDS-PAGE and pooled fractions were assayed for anti-viral activity (specific activity) in an MDBK assay by the method described in by Familletti, et al. [Methods Enzym. 78,387 (1987)].
Protein concentrations were determined spectrophotometrically at […] using an extinction coefficient of 1.0 for a 1 mg/ml IFN-alpha buffered solution.

CTLL cell = CTLL cell proliferation assay (specific activity of rIL-2); type: cell-based; settings: Example 3, Table III: rIL-2 conjugated to PEG with reagent of Example 1; label = apparent molecular weight (kD)
Protocol: Acad. Sci., USA, 84:1483, (1987)] using hydrophic exchange chromatography (Bio-Rad; Biogel-phenyl 5-PW). […] Aliquots of the fractions were evaluated by SDS-PAGE and pooled fractions were assayed to determine its specific activity in a CTLL cell proliferation assay by the method described by Gillis et al. [J. Immunology 120:2027, (1978)].

[2] = test system: rIL-1alpha induction of interleukin-6; assay: Inhibition of rIL-1alpha induction of interleukin-6 in mice (pharmacodynamics); type: in vivo
Protocol: The pharmacodynamics of IL-1ra protein was evaluated in vivo by the ability of the IL-1ra to inhibit rIL-1alpha induction of interleukin-6. Serum from mice treated with rIL-1alpha contain high levels of IL-6, [McIntosh et al., Immunol. 143: 162, (1989)]. The administration of unmodified IL-1ra together with IL-1alpha (0 hr time point) inhibits the induction of IL-6. This test system was used to compare the pharmacodynamic properties of unmodified and PEG IL-1ra. […] Three hours later, serum samples were collected. IL-6 levels (units) were determined using a modification of an IL-6 assay that has been previously described [Van Snick et al., Proc. Natl. Acad. Sci. USA 83:9679, (1986)]. In the IL.-6 assay, B9 hybridoma cells were treated with two fold serial dilutions of the test sera in 96-well microtiter plates. Following a 3 day incubation at 37° C. in a humidified atmosphere comprised of 5% CO2 and 95% air, the wells were pulsed with 0.5 uCi of tritiated thymidine and incubated for an additional 18 hr. The cells were then harvested onto glass fiber filters and the level of tritiated thymidine incorporation was determined by scintillation counting. IL-6 activity is expressed as U/ml. IL-6 units are defined as the inverse of the serum dilution which produces half-maximal tritiated thymidine incorporation compared to a reference standard.

[3] = Example 7, Table VIII: rIL-1 alpha conjugated with reagent of Example 5

## alpha-[2-[[(2-Pyridinyloxy)carbonyl]amino]ethyl]omega-[2-[[(2-pyridinyloxy)carbonyl]amino]-ethoxy]poly(oxy-1,2-ethanediyl) SRU 180 [Example 33]
D10 cell; [3]
  Specific Activity: 4.5 × 10^6 units/mg
[1]; Example 6A, Table VII: IL-1ra conjugated with reagent of Example 5a, label = apparent molecular weight (kD)
  IC50: 9.0 ng/mL
[1]; Example 12A, Table XIII: IL-1ra pegylated with reagent of Example 11a, label = apparent molecular weight (kD)
  IC50: 6.0 ng/mL
[1]; Example 19, Table XIV: IL-1ra pegylated with reagent of Example 18, label = apparent molecular weight (kD)
  IC50: 30.0 ng/mL
[1]; Example 19A, Table XV: IL-1ra pegylated with reagent of Example 18a, label = apparent molecular weight (kD)
  IC50: 9.0 ng/mL
[1]; Example 29, Table XX: IL-1ra pegylated with reagent of Example 28, label = molecular weight (kD)
  IC50: 5.0 ng/mL

## alpha-[(2-Pyridinyloxy)thiocarbonyl]-omega-methoxypoly (oxy-1,2-ethanediyl) SRU 225 [Example 28]
MDBK; Example 8, Table IX: IFN-alpha conjugated with reagent of Example 5
  Specific Activity: 1.4 × 10^8 units/mg
MDBK; Example 20, Table XVI: IFN-alpha conjugated with reagent of Example 18
  Specific Activity: 8.0 × 10^7 units/mg
CTLL cell
  Specific Activity: 2.4 × 10^7 units/mg
[1]; Example 12, Table XII: IL-1ra pegylated with reagent of Example 11, label = apparent molecular weight (kD)
  IC50: 3.0 ng/mL

## rIL-1 alpha: Recombinant Interleukin 1-alpha, unmodified; apparent molecular weight 17 kD by SDS-PAGE
D10 cell; [3]
  Specific Activity: 4.6 × 10^7 units/mg
D10 cell; Example 27, Table XIX: rIL-1 alpha conjugated to PEG with reagent of Example 23
  Specific Activity: 1.1 × 10^8 units/mg
D10 cell; general statement, Example 7
  specific activity of the rIL-1 alpha: approximately 1.0×10^8 units/mg
[2]; Example 6 experiment, 0.2 ug rIL-1 alpha, serum three hours later
  IL-6 in mice treated only with IL-1: 28852 U/ml
[2]; Example 12 experiment
  IL-6 induced by IL-1 alone: 27283 u/ml
[2]; Example 19A experiment, 0.05 ug rIL-1 alpha
  IL-6 response to IL-1 alone: 9203 units/ml

B1: 26 kD rIL-1 alpha (Example 7): rIL-1 alpha pegylated with the reagent of Example 5; apparent molecular weight 26 kD (conjugate, UniProt P01583 113-271, looked up)
Interleukin-1 alpha: SAPFSFLSNVKYNFMRIIKYEFILNDALNQSIIRANDQYLTAAALHNLDEAVKFDMGAYKSSKDDAKITVILRISKTQLYVTAQDEDQPVLLKEMPEIPKTITGSETNLLFFWETHGTKNYFTSVAHPNLFIATKQDYWVCLAGGPPSITDFQILENQA
modifications: PEG conjugate
notes: apparent molecular weight 26 kD
D10 cell; Example 7
  bioactivity relative to IL-1 alpha: 2-3 fold

B2: 33 kD rIL-1 alpha (Example 7): rIL-1 alpha pegylated with the reagent of Example 5; apparent molecular weight 33 kD (conjugate, UniProt P01583 113-271, looked up)
Interleukin-1 alpha: B1 Interleukin-1 alpha
modifications: PEG conjugate
notes: apparent molecular weight 33 kD
D10 cell; Example 7
  bioactivity relative to IL-1 alpha: substantial loss of bioactivity
